Measured values from article PMC5857972 (2018).

B1: Pertuzumab Vκ1|VH3 whole IgG1 (original pairing) (antibody, V domains shown)
VH: EVQLVESGGGLVQPGGSLRLSCAASGFTFTDYTMDWVRQAPGKGLEWVADVNPNSGGSIYNQRFKGRFTLSVDRSKNTLYLQMNSLRAEDTAVYYCARNLGPSFYFDYWGQGTLVTVSS
VL: DIQMTQSPSSLSASVGDRVTITCKASQDVSIGVAWYQQKPGKAPKLLIYSASYRYTGVPSRFSGSGSGTDFTLTISSLQPEDFATYYCQQYYIYPYTFGQGTKVEIK

Experiments:
[1] = target: Pertuzumab Vκ1|VH3 whole IgG1 (original pairing); assay: BLI; Octet QKe; antibody captured by its Fc on Anti-Human Fc Capture (AHC) biosensor, Her2 in solution; KD calculated from Kon and Koff by the Octet software; triplicates
[2] = target: extracellular portion of the human FcγIIA (human) (UniProt P12318); assay: BLI
[3] = target: T1, extracellular portion of the human FcγIIA (human, UniProt P12318-1 34-215); assay: BLI
T1 chain: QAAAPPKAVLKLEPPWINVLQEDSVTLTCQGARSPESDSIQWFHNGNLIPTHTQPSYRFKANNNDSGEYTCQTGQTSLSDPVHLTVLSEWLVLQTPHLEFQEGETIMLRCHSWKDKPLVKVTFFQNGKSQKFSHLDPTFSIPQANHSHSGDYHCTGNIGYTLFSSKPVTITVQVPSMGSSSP

[4] = target: T1, extracellular portion of the human …; assay: BLI

Molecule	Kd [2] [nM]	further results
Her2 (from UniProt P04626 23-1255) (natural protein)		Kd [1]: 0.87 nM
Pertuzumab Vκ1|VH2 whole IgG1 variant (from UniProt P01857)	4.74	
Pertuzumab Vκ2|VH2 whole IgG1 variant (from UniProt P01857)	4.99	
Pertuzumab Vκ2|VH6 whole IgG1 variant (from UniProt P01857)	3.94	
Pertuzumab Vκ3|VH1 whole IgG1 variant (from UniProt P01857)	11.5	
Pertuzumab Vκ3|VH3 whole IgG1 variant (from UniProt P01857)	23.7	
Pertuzumab Vκ4|VH1 whole IgG1 variant (from UniProt P01857)	116	
Pertuzumab Vκ4|VH2 whole IgG1 variant (from UniProt P01857)	3.33	
Pertuzumab Vκ5|VH3 whole IgG1 variant (from UniProt P01857)	15.7	
Pertuzumab Vκ6|VH5 whole IgG1 variant (from UniProt P01857)	83	
Pertuzumab Vκ6|VH7 whole IgG1 variant (from UniProt P01857)	72.7	
Trastuzumab Vκ2|VH6 whole IgG1 variant (from UniProt P01857)	14.7	
Trastuzumab Vκ3|VH1 whole IgG1 variant (from UniProt P01857)	9.3	
Trastuzumab Vκ6|VH1 whole IgG1 variant (from UniProt P01857)	47.9	
Trastuzumab Vκ6|VH4 whole IgG1 variant (from UniProt P01857)	30	
Trastuzumab Vκ6|VH5 whole IgG1 variant (from UniProt P01857)	12.5	
Trastuzumab Vκ6|VH6 whole IgG1 variant (from UniProt P01857)	39.7	
B1		Kd [3]: 9.31 nM; koff [4]: 0.00154 s⁻¹
